The target in one series is T1, Topo IIN (Giardia lamblia, UniProt E2RU90 1-488).
T1 sequence: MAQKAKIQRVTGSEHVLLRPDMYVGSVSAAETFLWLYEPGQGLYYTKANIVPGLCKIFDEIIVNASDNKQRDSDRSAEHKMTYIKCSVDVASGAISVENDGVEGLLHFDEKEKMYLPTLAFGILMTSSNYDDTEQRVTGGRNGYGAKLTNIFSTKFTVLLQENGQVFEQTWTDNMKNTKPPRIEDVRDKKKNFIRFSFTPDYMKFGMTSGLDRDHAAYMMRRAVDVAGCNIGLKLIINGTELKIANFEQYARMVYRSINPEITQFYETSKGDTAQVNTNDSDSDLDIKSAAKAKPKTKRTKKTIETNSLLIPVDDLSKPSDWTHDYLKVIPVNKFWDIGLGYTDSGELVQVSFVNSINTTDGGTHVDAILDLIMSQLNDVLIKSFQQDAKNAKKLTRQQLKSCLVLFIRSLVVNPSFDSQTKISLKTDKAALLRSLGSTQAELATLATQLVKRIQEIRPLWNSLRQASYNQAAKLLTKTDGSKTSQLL
Put plainly: EMSA; EMSA: 0.02 pmol 5'-labeled probe, 5 ng protein, 20 ul, 0.5 ug poly(dI-dC), 15 min, room temperature, 6% acrylamide gel; buffer, salt and pH only by citation. Particulars: protein: recombinant; tags: C-terminal V5-His; label: 5'-32P.

A further series deals with T2, Topo II (Giardia lamblia, UniProt E2RU90 1-1491).
T2 sequence: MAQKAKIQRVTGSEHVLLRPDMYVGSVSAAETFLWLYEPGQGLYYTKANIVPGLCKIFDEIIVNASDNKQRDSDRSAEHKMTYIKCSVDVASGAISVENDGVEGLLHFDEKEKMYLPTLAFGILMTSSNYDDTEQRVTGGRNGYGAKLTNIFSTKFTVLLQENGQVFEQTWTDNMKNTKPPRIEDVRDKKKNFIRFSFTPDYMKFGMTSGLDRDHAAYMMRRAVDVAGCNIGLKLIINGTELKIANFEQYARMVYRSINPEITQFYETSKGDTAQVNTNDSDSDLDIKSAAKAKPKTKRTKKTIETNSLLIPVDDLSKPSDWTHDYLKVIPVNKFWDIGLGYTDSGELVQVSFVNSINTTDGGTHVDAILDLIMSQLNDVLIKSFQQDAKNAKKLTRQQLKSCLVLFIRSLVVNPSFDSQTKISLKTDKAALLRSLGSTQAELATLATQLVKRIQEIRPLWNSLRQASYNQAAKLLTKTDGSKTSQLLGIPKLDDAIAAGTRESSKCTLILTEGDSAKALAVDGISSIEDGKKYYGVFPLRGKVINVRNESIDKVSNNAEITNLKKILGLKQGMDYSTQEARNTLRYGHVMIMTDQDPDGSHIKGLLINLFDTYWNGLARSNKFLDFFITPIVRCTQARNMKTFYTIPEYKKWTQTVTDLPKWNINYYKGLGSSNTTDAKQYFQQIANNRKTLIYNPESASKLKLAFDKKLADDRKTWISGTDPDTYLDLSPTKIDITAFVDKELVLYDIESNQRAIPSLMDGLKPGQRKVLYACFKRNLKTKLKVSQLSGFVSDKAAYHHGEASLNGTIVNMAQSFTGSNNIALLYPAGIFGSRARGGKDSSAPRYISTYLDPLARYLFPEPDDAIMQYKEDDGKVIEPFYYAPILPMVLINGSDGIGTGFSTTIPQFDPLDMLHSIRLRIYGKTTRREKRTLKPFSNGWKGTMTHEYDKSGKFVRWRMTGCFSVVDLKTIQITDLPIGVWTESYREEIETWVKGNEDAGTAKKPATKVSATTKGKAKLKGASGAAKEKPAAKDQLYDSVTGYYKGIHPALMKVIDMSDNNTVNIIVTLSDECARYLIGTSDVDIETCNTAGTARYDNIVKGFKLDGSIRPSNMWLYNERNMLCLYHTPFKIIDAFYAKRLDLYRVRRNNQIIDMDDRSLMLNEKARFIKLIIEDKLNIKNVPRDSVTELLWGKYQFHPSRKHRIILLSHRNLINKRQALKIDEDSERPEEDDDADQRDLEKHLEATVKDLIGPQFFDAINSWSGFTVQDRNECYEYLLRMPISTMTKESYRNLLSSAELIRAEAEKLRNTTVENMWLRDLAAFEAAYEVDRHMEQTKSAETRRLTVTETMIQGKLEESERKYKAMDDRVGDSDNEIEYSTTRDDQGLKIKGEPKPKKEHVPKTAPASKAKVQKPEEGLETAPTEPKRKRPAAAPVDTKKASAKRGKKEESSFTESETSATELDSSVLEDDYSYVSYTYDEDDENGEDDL
Described as above. Particulars: protein: recombinant; tags: C-terminal V5-His; chain copies: 2; label: 5'-32P.

B1: IIBS (dsDNA)
DNA 1: ATGAAATCTAACAATGCGCTCATCGTCATCCTCGGC
DNA 2: GCCGAGGATGACGATGAGCGCATTGTTAGATTTCAT
On to B1, for which the figures for the binding result in the series with Topo IIN and with Topo II were “no binding” and “binds”, respectively.

Source of the values: PMC3656124, “DNA Topoisomerase II Is Involved in Regulation of Cyst Wall Protein Genes and Differentiation in Giardia lamblia” (PLoS Neglected Tropical Diseases, 2013).
